For one test, the system named is p50/p65 complex. Kind of test: NF-κB DNA binding assay (EMSA). The format is biochemical, human. As to conditions: 293 cells cotransfected with p50 and p65 expression vectors. The procedure:
DNA binding assay. Electrophoretic mobility shift assays (EMSAs) were conducted on 10 μg of nuclear extract protein from 293 cells transiently transfected with pRSV p50/p65 expression constructs and pVR1012 PRMT-2-A/PRMT-2-N expression constructs. A modified Dignam procedure (Dignam et al. Nucleic Acids Res. 11, 1475-1489 (1983)) was used to prepare nuclear extracts from 293 cells. Perkins, N. D. et al. Science 275, 523-527 (1997). NF-KB DNA binding was assayed using a double-stranded 32P-labeled κB probe (Geneka Biotechnology). DNA binding assays were performed as described previously. Perkins et al. Science 275, 523-527 (1997). Supershifting was done using NF-κB p65 (C-20) and NF-κB p50 (H-119) (Santa Cruz). GST-PRMT-2-A fusion proteins were expressed in BL21 (DE3) cells and extracts were prepared as described previously. Smith, D. B. & Johnson, K. S. Gene 67, 31-40 (1988).
Background: In EMSA bound probe runs differently from free probe, usually more slowly.

In another test the test system is E2F1. The test can be described thus: E2F reporter assay (GAL4-E2F1 activator, luciferase). The format is cell-based. As for the experimental part:
HeLa cells, U2OS cells, and Saos2 cells were seeded at a density of 5×10^4 per well in 24-well plates. Cells were transfected 24 hours later with the indicated plasmid and with 20 ng of pRL-TK (Promega) as an internal control to normalize transfection efficiency. The amount of CMV promoter in the transfection was kept constant using empty vector. Cells were harvested at 30 or 36 hour after transfection and luciferase activity was analyzed by Dual-Luciferase Reporter Assay System (Promega). Luciferase activity was measured as a ratio of Firefly to Renilla. To study endogenous E2F activity in MEFs, PRMT-2^+/+ or PRMT-2^−/− MEFs were seeded at a density of 3×10^5 per well in 6-well plates. Cells were transfected 24 hours later with 3 μg of E2F4B-Luc and 10 ng of pRL-TK plasmid. Cells were harvested at 36 hour after transfection and analyzed for luciferase activity as described above.

The next test deals with STAT3. Kind of test: STAT3 arginine methylation in transfected HEK293 cells. The class given is cell-based. As to conditions: 24 hr after transfection, α-metR immunoblot. The procedure: Vascular smooth muscle cells (VSMC) were prepared from the thoracic aorta of 12-week-old-male wild-type and PRMT-2^−/− mice by the explant method. Mouse embryo fibroblasts (MEFs) were prepared from 13.5-day wild-type and PRMT-2^−/− embryos. VSMCs and MEFs were cultured in Dulbecco's modified Eagle's medium (DMEM) containing 10% fetal calf serum (FCS) at 37° C. in a humidified atmosphere of 95% air-5% CO2. The integrity of PRMT-2 expression in the established VSMCs and MEFs lines was confirmed by Western and immunofluorescence analysis (data not shown). Quiescent VSMC (3-5th passages) that had been serum-starved for 48 hr were used in the following experiments. HEK293 cells were also grown in DMEM plus 10% FCS and were transiently transfected with FuGENE6 transfection reagent (Roche Applied Science, Indianapolis, Ind.) according to the manufacture's protocol. For each transfection, 2 μg of expression construct for mouse PRMT-2 and 8 μg for mouse STAT3 were used. After 24-48 hr of transfection, cells were used for the following experiments.
Immunoprecipitation of STAT3 was performed as follows. […]
(In general: Immunoblotting shows a protein as a band on a membrane.)

The subject of the next test is MHC Class I. Kind of test: Flow cytometry of endogenous MHC Class I in 293T cells. The class given is cell-based, human. The following applies: 48 hrs after transfection. The procedure:
293 cells were transfected with 1 μg of the indicated reporter plasmids and 5 μg of either PRMT2-A or pVR1012 plasmids. Cells were harvested 36 hours post-transfection, and CAT assays were performed. Data shown are the mean (±SEM)-fold inhibition, in the presence of PRMT2-A, over a vector control of 3 independent experiments. […] 293T human embryonic kidney cells were transfected with HIV-luciferase reporter (WT) or ΔκB-luciferase reporter (ΔκB) and PRMT2 or control vector plasmid. 24 hrs after transfection, cells were treated with vehicle (left panel) or with TNF-α (20 ng/ml; middle panel) or PMA (10 ng/ml; right panel) as indicated, and luciferase activity was measured 48 hrs post transfection. […] 293T cells were transfected with HA-PRMT2 or HA-PRMT2-N. Transfected cells were detached after 48 hrs and analyzed by flow cytometry for MHC Class I and CD9 in HA-positive cells in PRMT2 (FIG. 2C) or PRMT2-N (FIG. 2D) transfected cells. […] 293T cells were transfected with plasmids as indicated where IKK2 or p65 was added as shown, and the κB luciferase reporter gene was used to monitor NF-κB activity 48 hrs after transfection. Values are expressed as fold stimulation compared to the control vector.

This is an account of results in US20060239990A1, “Protein Arginine N-Methyltransferase 2 (PRMT-2)” (priority 2003, published 2006).

B1: PRMT2: human PRMT-2 polypeptide, SEQ ID NO:2, expressed from pVR1012 vector with HA-tag (protein, listed as Homo sapiens)
chain: MATSGDCPRSESQGEEPAECSEAGLLQEGVQPEEFVAIADYAATDETQLSFLRGEKILILRQTTADWWWGERAGCCGYIPANHVGKHVDEYDPEDTWQDEEYFGSYGTLKLHLEMLADQPRTTKYHSVILQNKESLTDKVILDVGCGTGIISLFCAHYARPRAVYAVEASEMAQHTGQLVLQNGFADIITVYQQKVEDVVLPEKVDVLVSEWMGTCLLFEFMIESILYARDAWLKEDGVIWPTMAALHLVPCSADKDYRSKVLFWDNAYEFNLSALKSLAVKEFFSKPKYNHILKPEDCLSEPCTILQLDMRTVQISDLETLRGELRFDIRKAGTLHGFTAWFSVHFQSLQEGQPPQVLSTGPFHPTTHWKQTLFMMDDPVPVHTGDVVTGSVVLQRNPVWRRHMSVALSWAVTSRQDPTSQKVGEKVFPIWR
modifications: HA tag
On to B1, for which, in the test on p50/p65 complex, the “NF-κB DNA binding in nuclear extracts of transfected cells” value is “inhibited DNA binding of the p50/p65 complex in a dose-dependent manner”. Further, the E2F1-induced promoter activity entry in the test with E2F1 (HeLa cells, in the presence of the E2F1 activator) was “repressed E2F1-induced promoter activity in a dose-dependent manner”. For the same molecule, in the test on E2F1 (Saos 2 cells (RB-deficient), without RB), the E2F1 activity entry is given as “did not repress E2F1 activity”. Also, the E2F repression result in the test on E2F1 (Saos 2 cells co-transfected with RB) is on record as “E2F repression by PRMT2 in a dose-dependent manner was observed”. Moreover, in the test with STAT3, the Stat3 methylation entry is reported as “endogenous methylated STAT3 was detected”. In addition, the “endogenous MHC Class I cell surface expression” value in the test on MHC Class I is “decreased endogenous MHC Class I cell surface expression”.
